These results are taken from patent US7803904 (Takeda / Millennium, dated 2010).

The target in assay [1] is T1, human α4β7 integrin (human, UniProt P13612 34-1032; P26010 20-798).
T1 construct: whole, on cells; also called α4β7 on RPMI 8866 cells; α4β7 on HuT 78 cells
The assay is described as follows: cell adhesion, FIG. 5 legend. As for the experimental part:
Clone pcD3huMAd4 (insert from clone 4) or pcD3huMAd20 (insert from clone 20) was transiently transfected into CHO/P cells.
Adhesion of the CHO/P transfectants to RPMI 8866 cells was blocked by preincubation with anti-α4β7 MAb ACT-1, but not by control IgG. […] To further characterize these distinct cDNAs, both clones were completely sequenced.

Assay [2] addresses T2, murine α4β7 integrin (mouse, UniProt Q00651 41-1039; P26011 20-806).
T2 construct: whole, on cells; Carried by the murine T cell lymphoma TK1; also called α4β7 on TK1 cells
Nature of the assay: cell adhesion, CHO/P transient transfectants.

Assay [3] addresses T1, human α4β7 integrin. Nature of the assay: cell adhesion, FIG. 4A. On the procedure: (§1) Where DATK 32 was used in a preincubation with a cell line, prior to the start of the assay, the supernatant or buffer present in the wells (containing the transfectants) was aspirated in order to obtain volume of 0.5 ml total for the adhesion assay.
(§2) Assays were fixed as described above. Plates were washed by gentle inversion in a large beaker of phosphate buffered saline (PBS), followed by inversion in a beaker of PBS with 1.5% gluteraldehyde for fixation for a minimum of 1 hour. Adhesion was assessed by counting both lymphocytes and CHO cells in a field at 20× magnification. For each assay, the number of lymphocytes bound per CHO/P cell was averaged as a minimum of four fields with standard error. Results in each case are from one of three experiments performed with similar results.
(§3) Murine MAdCAM-1 specifically binds lymphocytes expressing α4β7 (and not α4β1). […] Binding of these cell lines was compared to that of transiently transfected CHO/P cells expressing murine MAdCAM-1 and human VCAM-1.

In assay [4] the target is T3, human α4β1 integrin (human, UniProt P13612 34-1032; P05556 21-798).
T3 construct: whole, on cells; Carried by Jurkat and Ramos cells (α4β1, not α4β7); also called α4β1 on Jurkat cells; α4β1 on Ramos cells
The assay is described as follows: functional adhesion assay, CHO/P transfectants, 4° C (FIG. 4B). On the procedure:
as §1, §2, §3

Assay [5] concerns the target T3, human α4β1 integrin. Nature of the assay: cell adhesion assay, CHO/P transfectants.
Assay [6] addresses T3, human α4β1 integrin. Nature of the assay: cell adhesion, FIG. 4B legend. As for the experimental part:
as §1, §2, §3

In assay [7] the target is T1, human α4β7 integrin. Nature of the assay: cell adhesion assay, CHO/P transfectants.
The target in assay [8] is T2, murine α4β7 integrin. The assay is described as follows: cell adhesion, L1-2 stable transfectants.

T3 sequence (P13612 34-1032, chain 1 of 2): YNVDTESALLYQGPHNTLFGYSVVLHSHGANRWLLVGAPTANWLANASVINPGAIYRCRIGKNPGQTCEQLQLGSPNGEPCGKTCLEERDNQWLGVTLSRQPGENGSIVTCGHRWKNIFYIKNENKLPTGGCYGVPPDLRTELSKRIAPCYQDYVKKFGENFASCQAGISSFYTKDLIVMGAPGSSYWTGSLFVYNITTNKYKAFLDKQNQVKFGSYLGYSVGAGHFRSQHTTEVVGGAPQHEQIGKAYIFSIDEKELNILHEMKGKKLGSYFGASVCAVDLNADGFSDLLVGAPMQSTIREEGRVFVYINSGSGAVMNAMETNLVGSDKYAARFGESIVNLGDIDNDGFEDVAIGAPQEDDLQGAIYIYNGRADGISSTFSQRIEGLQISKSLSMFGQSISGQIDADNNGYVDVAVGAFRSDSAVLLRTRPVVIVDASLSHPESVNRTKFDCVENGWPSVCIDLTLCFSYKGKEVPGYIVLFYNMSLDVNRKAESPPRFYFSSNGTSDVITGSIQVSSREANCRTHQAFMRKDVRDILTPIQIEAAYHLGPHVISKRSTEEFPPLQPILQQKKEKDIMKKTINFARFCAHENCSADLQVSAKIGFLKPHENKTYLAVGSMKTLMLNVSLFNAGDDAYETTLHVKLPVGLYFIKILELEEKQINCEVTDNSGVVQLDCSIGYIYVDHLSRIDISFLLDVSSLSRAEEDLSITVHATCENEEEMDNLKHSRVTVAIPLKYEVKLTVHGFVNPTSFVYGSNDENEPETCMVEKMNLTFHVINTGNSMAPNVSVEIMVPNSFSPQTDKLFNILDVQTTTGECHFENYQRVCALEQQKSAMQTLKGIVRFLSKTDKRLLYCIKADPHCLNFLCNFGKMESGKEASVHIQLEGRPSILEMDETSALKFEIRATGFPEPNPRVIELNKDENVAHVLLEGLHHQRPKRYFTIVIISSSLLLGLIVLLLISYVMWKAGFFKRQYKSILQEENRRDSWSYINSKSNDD
T3 sequence (P05556 21-798, chain 2 of 2): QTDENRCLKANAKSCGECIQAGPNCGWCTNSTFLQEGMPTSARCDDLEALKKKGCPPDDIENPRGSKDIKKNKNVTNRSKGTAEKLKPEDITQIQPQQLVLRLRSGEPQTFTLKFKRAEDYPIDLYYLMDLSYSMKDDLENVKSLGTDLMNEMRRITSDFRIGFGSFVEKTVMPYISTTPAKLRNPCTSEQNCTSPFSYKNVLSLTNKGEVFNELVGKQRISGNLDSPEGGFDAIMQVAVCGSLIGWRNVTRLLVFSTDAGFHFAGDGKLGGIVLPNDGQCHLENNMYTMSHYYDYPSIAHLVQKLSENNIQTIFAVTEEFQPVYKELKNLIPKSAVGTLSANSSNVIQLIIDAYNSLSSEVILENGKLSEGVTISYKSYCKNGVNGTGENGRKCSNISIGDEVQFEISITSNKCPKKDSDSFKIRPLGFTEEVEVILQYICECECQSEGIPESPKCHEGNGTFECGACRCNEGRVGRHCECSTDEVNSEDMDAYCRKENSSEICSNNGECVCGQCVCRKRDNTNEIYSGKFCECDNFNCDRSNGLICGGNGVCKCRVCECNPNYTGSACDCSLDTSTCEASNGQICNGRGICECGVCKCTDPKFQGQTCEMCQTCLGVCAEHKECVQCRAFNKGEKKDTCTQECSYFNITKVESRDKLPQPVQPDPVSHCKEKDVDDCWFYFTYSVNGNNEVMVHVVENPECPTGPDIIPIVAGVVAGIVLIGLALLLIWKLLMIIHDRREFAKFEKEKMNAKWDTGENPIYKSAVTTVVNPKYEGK
T1 sequence (P13612 34-1032, chain 1 of 2): as the sequence (P13612 34-1032, chain 1 of 2) above
T1 sequence (P26010 20-798, chain 2 of 2): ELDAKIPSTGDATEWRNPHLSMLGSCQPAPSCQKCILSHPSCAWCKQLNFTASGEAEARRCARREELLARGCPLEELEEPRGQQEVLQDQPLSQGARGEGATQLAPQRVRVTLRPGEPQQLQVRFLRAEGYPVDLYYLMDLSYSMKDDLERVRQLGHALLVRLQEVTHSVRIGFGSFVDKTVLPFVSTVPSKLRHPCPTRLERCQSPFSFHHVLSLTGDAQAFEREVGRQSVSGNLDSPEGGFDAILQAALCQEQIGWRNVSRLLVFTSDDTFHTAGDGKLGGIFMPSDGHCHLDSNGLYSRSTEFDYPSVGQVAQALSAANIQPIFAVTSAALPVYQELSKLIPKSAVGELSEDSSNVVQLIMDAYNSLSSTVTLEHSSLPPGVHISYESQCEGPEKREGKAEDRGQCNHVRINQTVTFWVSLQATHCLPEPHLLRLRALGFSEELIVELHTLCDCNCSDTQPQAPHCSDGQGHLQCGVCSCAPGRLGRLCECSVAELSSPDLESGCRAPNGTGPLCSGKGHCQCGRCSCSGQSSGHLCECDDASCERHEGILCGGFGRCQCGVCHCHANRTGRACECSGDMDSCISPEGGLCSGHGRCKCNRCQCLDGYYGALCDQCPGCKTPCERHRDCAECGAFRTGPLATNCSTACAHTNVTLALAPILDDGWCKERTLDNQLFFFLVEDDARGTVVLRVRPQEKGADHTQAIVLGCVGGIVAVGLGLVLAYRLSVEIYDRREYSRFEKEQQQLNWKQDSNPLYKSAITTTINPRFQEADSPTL
T2 sequence (Q00651 41-1039, chain 1 of 2): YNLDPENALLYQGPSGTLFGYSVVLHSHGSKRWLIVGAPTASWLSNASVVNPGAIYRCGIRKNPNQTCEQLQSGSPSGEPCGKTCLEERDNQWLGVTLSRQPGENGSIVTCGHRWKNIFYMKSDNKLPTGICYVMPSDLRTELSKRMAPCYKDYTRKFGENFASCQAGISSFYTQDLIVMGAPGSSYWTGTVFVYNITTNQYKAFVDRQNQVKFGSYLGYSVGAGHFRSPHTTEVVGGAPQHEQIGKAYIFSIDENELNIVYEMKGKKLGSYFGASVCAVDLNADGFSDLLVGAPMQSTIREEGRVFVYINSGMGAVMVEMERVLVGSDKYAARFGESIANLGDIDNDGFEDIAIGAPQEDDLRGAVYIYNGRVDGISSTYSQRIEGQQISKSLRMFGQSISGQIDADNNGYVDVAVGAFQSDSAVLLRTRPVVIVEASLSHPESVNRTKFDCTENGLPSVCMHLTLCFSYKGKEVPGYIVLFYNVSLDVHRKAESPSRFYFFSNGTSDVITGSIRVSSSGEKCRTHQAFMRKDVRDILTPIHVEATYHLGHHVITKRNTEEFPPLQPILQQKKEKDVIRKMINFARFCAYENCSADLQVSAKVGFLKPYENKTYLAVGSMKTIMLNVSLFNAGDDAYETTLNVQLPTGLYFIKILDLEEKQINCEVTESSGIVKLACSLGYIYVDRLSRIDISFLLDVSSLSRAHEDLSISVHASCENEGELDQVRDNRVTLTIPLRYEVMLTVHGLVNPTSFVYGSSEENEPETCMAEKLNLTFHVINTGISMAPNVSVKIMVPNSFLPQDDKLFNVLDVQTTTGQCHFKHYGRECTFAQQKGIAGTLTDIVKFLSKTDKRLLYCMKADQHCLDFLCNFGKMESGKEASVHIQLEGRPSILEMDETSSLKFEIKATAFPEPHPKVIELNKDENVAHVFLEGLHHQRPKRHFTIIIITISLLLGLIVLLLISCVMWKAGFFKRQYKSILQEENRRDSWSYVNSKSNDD
T2 sequence (P26011 20-806, chain 2 of 2): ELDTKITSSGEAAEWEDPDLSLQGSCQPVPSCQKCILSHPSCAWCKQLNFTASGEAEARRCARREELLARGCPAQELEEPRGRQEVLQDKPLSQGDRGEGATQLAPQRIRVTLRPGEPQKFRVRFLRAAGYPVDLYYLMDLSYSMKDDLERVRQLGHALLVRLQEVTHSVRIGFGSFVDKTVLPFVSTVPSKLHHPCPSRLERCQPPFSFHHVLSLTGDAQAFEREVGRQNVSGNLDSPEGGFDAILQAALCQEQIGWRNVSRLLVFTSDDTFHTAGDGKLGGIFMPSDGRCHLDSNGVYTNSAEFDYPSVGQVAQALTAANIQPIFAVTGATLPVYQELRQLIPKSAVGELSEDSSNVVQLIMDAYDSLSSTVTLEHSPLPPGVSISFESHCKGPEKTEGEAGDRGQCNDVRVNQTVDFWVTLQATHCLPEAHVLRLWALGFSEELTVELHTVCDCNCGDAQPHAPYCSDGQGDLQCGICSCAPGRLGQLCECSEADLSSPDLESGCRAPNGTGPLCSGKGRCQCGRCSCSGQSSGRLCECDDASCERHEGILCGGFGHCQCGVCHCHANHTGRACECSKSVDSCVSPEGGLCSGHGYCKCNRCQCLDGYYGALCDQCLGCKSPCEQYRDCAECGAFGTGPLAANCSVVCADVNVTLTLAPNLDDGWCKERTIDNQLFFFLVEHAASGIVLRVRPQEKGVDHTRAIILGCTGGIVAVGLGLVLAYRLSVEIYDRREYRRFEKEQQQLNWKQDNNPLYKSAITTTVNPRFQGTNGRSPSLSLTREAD

B1: human MAdCAM-1 (cDNA clone 20) (receptor)
chain: QSLQVKPLQVEPPEPVVAVALGASRQLTCRLACADRGASVQWRGLDTSLGAVQSDTGRSVLTVRNASLSAAGTRVCVGSCGGRTFQHTVQLLVYAFPDQLTVSPAALVPGDPEVACTAHKVTPVDPNALSFSLLVGGQELEGAQALGPEVQEEEEEPQGDEDVLFRVTERWRLPPLGTPVPPALYCQATMRLPGLELSHRQAIPVLHSPTSPEPPDTTSPESPDTTSPESPDTTSQEPPDTTSPEPPDKTSPEPAPQQGSTHTPRSPGSTRTRRPEISQAGPTQGEVIPTGSSKPAGDQLPAALWTSSAVLGLLLLALPTYHLWKRCRHLAEDDTHPPASLRLLPQVSAWAGLRGTGQVGISPS
notes: Isoform with a shorter mucin domain, expressed on CHO/P cells; also called pcD3huMAd20
Turning to B1, the binding result in assay [1] and in assay [2] was “binds” throughout.

B2: murine MAdCAM-1 (receptor, mouse, UniProt Q61826 22-405, looked up)
chain: QSFQVNPPESEVAVAMGTSLQITCSMSCDEGVARVHWRGLDTSLGSVQTLPGSSILSVRGMLSDTGTPVCVGSCGSRSFQHSVKILVYAFPDQLVVSPEFLVPGQDQVVSCTAHNIWPADPNSLSFALLLGEQRLEGAQALEPEQEEEIQEAEGTPLFRMTQRWRLPSLGTPAPPALHCQVTMQLPKLVLTHRKEIPVLQSQTSPKPPNTTSAEPYILTSSSTAEAVSTGLNITTLPSAPPYPKLSPRTLSSEGPCRPKIHQDLEAGWELLCEASCGPGVTVRWTLAPGDLATYHKREAGAQAWLSVLPPGPMVEGWFQCRQDPGGEVTNLYVPGQVTPNSSSTVVLWIGSLVLGLLALVFLAYRLWKCYRPGPRPDTSSCTHL
notes: whole, on cells; Transiently expressed on CHO/P cells; also called pCDMAD-7
Regarding B2, the binding result in assay [3] was “binds”; in assay [4] it was “no binding”.

B3: macaque MAdCAM-1 (cDNA clone 31D) (receptor)
chain: QSLQVKPLQVEPPEPVVAVALGASRQLTCRLDCADRGATVQWRGLDTSLGAVQSDAGRSVLTVRNASLSAAGTRVCVGSCGGRTFQHTVRLLVYAFPDQLTISPAALVPGDPEVACTAHKVTPVDPNALSFSLLLGDQELEGAQALGPEVEEEEEEPQEEEDVLFRVTERWRLPTLATPVLPALYCQATMRLPGLELSHRQAIPVLHGPTSREPPDTTSPEPRAATSPETTPQQGSTHSPRSPGSTRTCRPEISQAGPTQGEVIPTGSSKPTGDQLPAALWTSSAVLGLLLLALPTYHLWKRCRHLAEDGAHPPASLSSQPFPL
notes: Expressed on CHO/P or L1-2 cells; also called pcD3pMAd; pCD3PMad
Turning to B3, the binding result in assay [5] is reported as “no binding”.

B4: seven domain human VCAM-1 (receptor, UniProt P19320 25-739, looked up)
chain: FKIETTPESRYLAQIGDSVSLTCSTTGCESPFFSWRTQIDSPLNGKVTNEGTTSTLTMNPVSFGNEHSYLCTATCESRKLEKGIQVEIYSFPKDPEIHLSGPLEAGKPITVKCSVADVYPFDRLEIDLLKGDHLMKSQEFLEDADRKSLETKSLEVTFTPVIEDIGKVLVCRAKLHIDEMDSVPTVRQAVKELQVYISPKNTVISVNPSTKLQEGGSVTMTCSSEGLPAPEIFWSKKLDNGNLQHLSGNATLTLIAMRMEDSGIYVCEGVNLIGKNRKEVELIVQEKPFTVEISPGPRIAAQIGDSVMLTCSVMGCESPSFSWRTQIDSPLSGKVRSEGTNSTLTLSPVSFENEHSYLCTVTCGHKKLEKGIQVELYSFPRDPEIEMSGGLVNGSSVTVSCKVPSVYPLDRLEIELLKGETILENIEFLEDTDMKSLENKSLEMTFIPTIEDTGKALVCQAKLHIDDMEFEPKQRQSTQTLYVNVAPRDTTVLVSPSSILEEGSSVNMTCLSQGFPAPKILWSRQLPNGELQPLSENATLTLISTKMEDSGVYLCEGINQAGRSRKEVELIIQVTPKDIKLTAFPSESVKEGDTVIISCTCGNVPETWIILKKKAETGDTVLKSIDGAYTIRKAQLKDAGVYECESKNKVGSQLRSLTLDVQGRENNKDYFSPELLVLYFASSLIIPAIGMIIYFARKANMKGSYSLVEAQKSKV
notes: whole, on cells; Transiently expressed on CHO/P cells; also called pCD3VCAM
For the molecule B4, the binding result is recorded as “binds” in assay [6] and “no binding” in assay [7].

B5: human MAdCAM-1 (cDNA clone 4) (receptor)
chain: QSLQVKPLQVEPPEPVVAVALGASRQLTCRLACADRGASVQWRGLDTSLGAVQSDTGRSVLTVRNASLSAAGTRVCVGSCGGRTFQHTVQLLVYAFPDQLTVSPAALVPGDPEVACTAHKVTPVDPNALSFSLLVGGQELEGAQALGPEVQEEEEEPQGDEDVLFRVTERWRLPPLGTPVPPALYCQATMRLPGLELSHRQAIPVLHSPTSPEPPDTTSPEPPNTTSPESPDTTSPESPDTTSQEPPDTTSQEPPDTTSQEPPDTTSPEPPDKTSPEPAPQQGSTHTPRSPGSTRTRRPEISQAGPTQGEVIPTGSSKPAGDQLPAALWTSSAVLGLLLLALPTYHLWKRCRHLAEDDTHPPASLRLLPQVSAWAGLRGTGQVGISPS
notes: also called pcD3huMAd4; pCDhuMAd4
Take B5: the binding result is on record as “binds” in assay [1], “binds” in assay [8] and “no binding” in assay [4].
